Residue numbers refer to the chain shown, from its start. Blank lines part the entries; values can stand above or below the molecule they belong to.
Legend:
[1] = molecular target: T1, TG2 activity in HepG2 cell homogenate (Homo sapiens, UniProt P21980); assay: 3H putrescine incorporation TG activity assay in HepG2 cell homogenate; type: biochemical
T1 construct: endogenous in cells; host or cells: HepG2
T1 sequence (P21980 1-687): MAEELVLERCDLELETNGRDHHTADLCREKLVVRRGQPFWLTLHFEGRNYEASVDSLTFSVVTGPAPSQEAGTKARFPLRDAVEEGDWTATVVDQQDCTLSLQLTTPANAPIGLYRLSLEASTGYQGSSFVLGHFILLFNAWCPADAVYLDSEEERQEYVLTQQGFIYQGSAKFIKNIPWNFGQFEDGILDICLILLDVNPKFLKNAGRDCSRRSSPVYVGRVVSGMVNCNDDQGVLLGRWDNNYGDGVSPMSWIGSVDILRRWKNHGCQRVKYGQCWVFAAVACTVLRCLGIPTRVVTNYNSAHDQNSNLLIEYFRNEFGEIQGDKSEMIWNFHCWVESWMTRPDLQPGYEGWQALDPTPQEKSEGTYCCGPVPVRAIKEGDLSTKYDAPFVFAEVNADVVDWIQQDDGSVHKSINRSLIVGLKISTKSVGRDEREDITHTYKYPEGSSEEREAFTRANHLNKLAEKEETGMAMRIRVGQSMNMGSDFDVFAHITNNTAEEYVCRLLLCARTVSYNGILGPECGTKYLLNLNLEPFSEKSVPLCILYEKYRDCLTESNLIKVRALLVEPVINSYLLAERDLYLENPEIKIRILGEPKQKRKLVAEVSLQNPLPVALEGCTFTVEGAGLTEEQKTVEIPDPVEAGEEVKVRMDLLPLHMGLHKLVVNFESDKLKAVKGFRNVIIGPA
Experimental: A: Hep2G cells were lysed and 45 ug of protein mixed with 750 ng of IgG from AB1, DH2, DD9, BB7, DC1 and EH6 for 20 minutes. This was subsequently assayed using the ^3H Putrescine incorporation TG activity assay with sampling over 1 hour. The rate of reaction was calculated and expressed as a percentage of the same lysate incubated with a random antibody (MAB002). Data represents the mean percentage inhibition ±SEM from 2 separate experiments done in duplicate. *p<0.05
HepG2 cells were kindly supplied by Richard Ross (University of Sheffield). Cells were routinely grown at 37° C. in a 95% humidified atmosphere of 5% CO2 in DMEM/4.5 g per liter glucose supplemented with 10% foetal calf serum (FCS), 100 IU penicillin and 100 μg/ml streptomycin, 2 mM I-glutamine (all GIBCO). Two million cells were seeded on a 10 cm dishes and grown for 48 hours. Cells were lysed in 250 μl of STE buffer (0.32M sucrose, 5 mM Tris, 1 mM EDTA containing protease inhibitors Phenylmethylsulphonyl fluoride (1 mM), benzamidine (5 mM), and leupeptin (10 μg/ml) and sonicated on ice to produce a cell lysate usable in TG2 activity assay.
The same protocol was used to assess TG inhibition in cell lysates by replacing the 25 μl of recombinant protein with 25 μl of cell lysate.

[2] = molecular target: T2, human TG2 (Homo sapiens, UniProt P21980); assay: 3H-putrescine incorporation TG activity assay with recombinant human TG2; type: biochemical; settings: for hybridoma supernatant ability to inhibit TG2 activity: initial screen of conditioned medium, 100 ng of TG2
T2 sequence (P21980 1-687): T1 sequence (P21980 1-687)
Experimental: To determine an IC50 value for each antibody against human, rat and mouse the ^3H Putrescine assay was used. 100 ng of human TG2 or 25 ng of mouse and rat TG2 was used to generate a reaction where approximately 3000 cpm of Putrescine were incorporated per hour in 10 ul of the reaction mixture. Serial dilutions of each antibody were then applied starting from adding 500 ng (5 ug/ml final concentration) to the reaction mixture and incubated with the TG2 for 20 minutes prior to activating the reaction. IC50 values were calculated by determining the concentration at which the enzymatic rate of reaction was reduced by 50% using an appropriate curve fit in graphpad prism. Values are expressed as the amount of IgG in […] in the reaction that would inhibit 1 ng of TG2.
TG activity is measured by the Ca^2+ dependent incorporation of ^3H-putrescine into N′,N′-dimethylcasein. Recombinant human TG2 (100 ng) was pre-incubated for twenty minutes at room temperature with the test sample (conditioned medium or purified IgG) before starting the reaction. Twenty-five μl of reaction mix (5 μl of 25 mM CaCl2, 5 μl of 40 mM dithiothreitol, 5 μl ^3H-putrescine mix, and 10 μl 25 mg/ml of N,N′ dimethylcasein (replace 25 mM CaCl2 with 100 mM EDTA for a non-enzymatic control) was added to start the reaction and the samples incubated at 37° C. for up to 1 hour. Aliquots of 10 μl were spotted onto a strip of 3 MM Whatman filter paper and plunged immediately into ice-cold 10% trichloroacetic acid (TCA) in order to precipitate the cross-linked proteins typically at time 0, 10, 30 and 60 minutes into the reaction. After three extensive washes in ice-cold 5% TCA followed by 3 rinses with ice-cold 95% ethanol, the air dried filter was counted in 2 ml of scintillation fluid (Ultima Gold Packard, Perkin Elmer). The rate of reaction was calculated. 1 TG unit is equivalent to the incorporation of 1 nmol of putrescine per hour at 37° C.

[3] = molecular target: T3, extracellular TG2 in human HK-2 cells (Homo sapiens, UniProt P21980); assay: Extracellular TG activity in HK-2 cells, biotin cadaverine incorporation into fibronectin (Example 1); type: cell-based
T3 construct: endogenous in cells; host or cells: HK-2 (kidney proximal tubular epithelium)
T3 sequence (P21980 1-687): T1 sequence (P21980 1-687)
Experimental: HK2 cells were plated onto fibronectin and incubated for 2 hours in the presence of 0.1M biotin cadaverine with either 4 ng/μl of human anti-TG2 antibody (AB1) (part A), 4 ng/μl of human anti-TG2 antibody (DC1) (part B) or 400 μM of the site-specific pan TG inhibitor 1,3-Dimethyl-2-[(2-oxo-propyl)thio]imidazolium chloride. […] Changes in optical density were measured at 450 nm in a 96 well plate reader. Data represents mean OD at 450 nm corrected to 1 mg of cell protein. n=6 wells per experimental group.
Extracellular TG activity was measured by modified cell ELISA. HK-2 epithelial cells were harvested using 0.1M EDTA or 0.25% trypsin/EDTA and plated at a density of 8×10^4 cells/well in serum free medium onto a 96 well plate that had been coated overnight with 100 μl/well of fibronectin (5 μg/ml in 50 mM Tris-HCl pH 7.4) (Sigma, Poole UK). Cells were allowed to attach for 2.5 h at 37° C. in the presence of the 0.1 mM biotin cadaverine [N-(5 amino pentyl biotinamide) trifluoroacetic acid] (Molecular Probes, Eugene Oreg., USA). Plates were washed twice with 3 mM EDTA/PBS and cells removed with 0.1% (w/v) deoxycholate in 5 mM EDTA/PBS. The supernatant was collected and used for protein determination. […] The reaction was stopped with 50 μl 2.5 M H2SO4 and the absorbance read at 450 nm.

B1: BB7: murine monoclonal anti-TG2 IgG, Group 1; VL SEQ ID NO: 60, VH SEQ ID NO: 61 (antibody, V domains shown)
VH: AVQLVESGGGLVKPGGSLKLSCAASGIIFSSSAMSWVRQTPEKRLEWVATISSGGRSTYYPDSVKGRFTVSRDSAKNTLYLQMDSLRSEDTAIYYCAKLISPYWGQGTTLTVSS
VL: AIKMTQSPSSMYASLGERVIITCKASQDINSYLTWFQQKPGKSPKTLIYLTNRLMDGVPSRFSGSGSGQEFLLTISGLEHEDMGIYYCLQYVDFPYTFGGGTKLEIK
modifications: BB-7 heavy chain variable region; BB-7 light chain variable region
- inhibition of TG2 activity in HepG2 homogenate ([1]; 0.5 μg of antibody, 45 ug lysate protein): 90%
- hybridoma supernatant ability to inhibit TG2 activity [2]: able to inhibit TG2 activity

B2: DC1: murine monoclonal anti-TG2 IgG, Group 1; VL SEQ ID NO: 70, VH SEQ ID NO: 71 (antibody, V domains shown)
VH: EVQLVESGGGLVKPGGSLKLSCAASGFTLSTHAMSWVRQTPEKRLEWVATISSGGRSTYYPDSVKGRFTISRDNVKNTLYLQLSSLRSEDTAVYFCARLISTYWGQGTTLTVSS
VL: DITMTQSPSSIYASLGERVTITCKASQDINSYLTWFQQKPGKSPKILIYLVNRLVDGVPSRFSGSGSGQDYALTISSLEYEDMGIYYCLQYDDFPYTFGGGTKLEIK
modifications: DC-1 heavy chain variable region; DC-1 light chain variable region
- inhibition of TG2 in human Hep2G cells (in words) [1]: able to inhibit TG2 successfully
- IC50 against human TG2 ([2]; amount of IgG in the reaction that would inhibit 1 ng of TG2, 100 ng human TG2): 0.011 µg/mL
- hybridoma supernatant ability to inhibit TG2 activity [2]: able to inhibit TG2 activity
- inhibition of extracellular TG activity ([3]; 4 ng/ul in the culture media): 55%
- inhibition of extracellular TG2 in human HK-2 cells (in words) ([3]; applied to the culture media): able to inhibit TG2 successfully

B5: AG9: murine TG2 inhibitory monoclonal antibody; VH and VK in FIG. 23 (antibody, V domains shown)
VH: EVQLQQSGPELVKPGASVKMSCRASGYTFTTYVIHWVKQKPGQGLEWIGYINPYNDGARYNEKFKGKATLTSDKSSTTAYMELSSLTSEDSAVYYCARLSSDYWGQGTTLTVSS
VL: DVLMTQNPLSLPVSLGDQASISCRSSRSIEHSNGNTYLEWYLQKPGQSPKFLIYKVSNRFSGVPDRFSGSGSGTDFTLRISSVEAEDLGVYYCFQGSHVPFTFGGGTKLEIK
- hybridoma supernatant ability to inhibit TG2 activity [2]: able to inhibit TG2 activity

B6: AH3: murine TG2 inhibitory monoclonal antibody; VH and VK in FIG. 24 (antibody, V domains shown)
VH: B5 VH
VL: B5 VL
- hybridoma supernatant ability to inhibit TG2 activity [2]: able to inhibit TG2 activity

Now from value to molecule:

- hybridoma supernatant ability to inhibit TG2 activity [2]: able to inhibit TG2 activity
B3: EH6: murine monoclonal anti-TG2 IgG, Group 1; VH and VK in FIG. 22 (antibody, V domains shown)
VH: B5 VH with R23K, T31S, I34M, Y50F, A58T, R59K, S75A, L99F, D102G
VL: B5 VL with N7T, R27Q, E30V, F51L, R79K, S82R, E84G, F94L, G96V, G105S

- hybridoma supernatant ability to inhibit TG2 activity [2]: able to inhibit TG2 activity
B4: JE12: murine monoclonal anti-TG2 IgG, Group 1; VH and VK in FIG. 21 (antibody, V domains shown)
VH: B5 VH with R23K, T28R, T31S, I34M, P41S, R59K, T77S
VL: B5 VL with R27Q, S32I, S82R, V90I
